# Changes are numbered by the printed parent chain. Names may count otherwise.
# B1: pig kidney FBPase L73A (Sus scrofa; L74A) (protein)
# chain: MTDQAAFDTNIVTLTRFVMEEGRKARGTGEMTQLLNSLCTAVKAISTAVRKAGIAHLYGIAGSTNVTGDQVKKADVLSNDLVINVLKSSFATCVLVSEEDKNAIIVEPEKRGKYVVCFDPLDGSSNIDCLVSIGTIFGIYRKNSTDEPSEKDALQPGRNLVAAGYALYGSATMLVLAMVNGVNCFMLDPAIGEFILVDRDVKIKKKGSIYSINEGYAKEFDPAITEYIQRKKFPPDNSAPYGARYVGSMVADVHRTLVYGGIFMYPANKKSPKGKLRLLYECNPMAYVMEKAGGLATTGKEAVLDIVPTDIHQRAPIILGSPEDVTELLEIYQKHAAK
# B2: pig kidney FBPase WT (Sus scrofa) (protein)
# chain: B1 chain with A74L
# B3: pig kidney FBPase Y164A (Sus scrofa; Y165A) (protein)
# chain: B1 chain with A74L, Y165A
# B4: pig kidney FBPase M177A (Sus scrofa; M178A) (protein)
# chain: B1 chain with A74L, M178A
# B5: pig kidney FBPase K112A (Sus scrofa; K113A) (protein)
# chain: B1 chain with A74L, K113A
# B6: pig kidney FBPase Y113A (Sus scrofa; Y114A) (protein)
# chain: B1 chain with A74L, Y114A
# B7: pig kidney FBPase M248D (Sus scrofa; M249D) (protein)
# chain: B1 chain with A74L, M249D
# B8: pig kidney FBPase L56A (Sus scrofa; L57A) (protein)
# chain: B1 chain with L57A, A74L
# Substrate: O=C(COP(=O)(O)O)[C@@H](O)[C@H](O)[C@H](O)COP(=O)(O)O
# Experiment: purified protein, by the assay type
# Conditions: apparent Km for substrate FBP, pH 7.5, 37.0 °C
# [1] = other: enzyme M177A_2 (second clone)
protein,measurement,setting,value
B1,Km,other: enzyme L73A,5.10 (± 0.3) µM
same,Vmax,other: enzyme L73A,50.5 µM/min
same,kcat,other: enzyme L73A,22.5 s⁻¹
same,kcat/Km,other: enzyme L73A,4.41e+06 M⁻¹ s⁻¹
B2,Km,other: enzyme WT,4.80 (± 0.5) µM
same,Vmax,other: enzyme WT,41.8 µM/min
same,kcat,other: enzyme WT,20.5 s⁻¹
same,kcat/Km,other: enzyme WT,4.3e+06 M⁻¹ s⁻¹
B3,Km,other: enzyme Y164A,5.30 (± 0.6) µM
same,Vmax,other: enzyme Y164A,27.5 µM/min
same,kcat,other: enzyme Y164A,13.5 s⁻¹
same,kcat/Km,other: enzyme Y164A,2.6e+06 M⁻¹ s⁻¹
B4,Km,other: enzyme M177A_1,4.20 (± 0.6) µM
same,Vmax,other: enzyme M177A_1,26.1 µM/min
same,kcat,other: enzyme M177A_1,12.8 s⁻¹
same,kcat/Km,other: enzyme M177A_1,3.1e+06 M⁻¹ s⁻¹
same,Km,[1],4.80 (± 0.5) µM
same,Vmax,[1],23.4 µM/min
same,kcat,[1],11.5 s⁻¹
same,kcat/Km,[1],2.4e+06 M⁻¹ s⁻¹
B5,Km,other: enzyme K112A,3.25 (± 0.2) µM
same,Vmax,other: enzyme K112A,54.7 µM/min
same,kcat,other: enzyme K112A,26.8 s⁻¹
same,kcat/Km,other: enzyme K112A,8.25e+06 M⁻¹ s⁻¹
B6,Km,other: enzyme Y113A,2.50 (± 0.3) µM
same,Vmax,other: enzyme Y113A,55.5 µM/min
same,kcat,other: enzyme Y113A,27.2 s⁻¹
same,kcat/Km,other: enzyme Y113A,1.09e+07 M⁻¹ s⁻¹
B7,Km,other: enzyme M248D,1.25 (± 0.4) µM
same,Vmax,other: enzyme M248D,62.2 µM/min
same,kcat,other: enzyme M248D,30.5 s⁻¹
same,kcat/Km,other: enzyme M248D,2.44e+07 M⁻¹ s⁻¹
B8,Km,other: enzyme L56A,5.20 (± 0.2) µM
same,Vmax,other: enzyme L56A,52.3 µM/min
same,kcat,other: enzyme L56A,25.6 s⁻¹
same,kcat/Km,other: enzyme L56A,4.9e+06 M⁻¹ s⁻¹
